Tests used:
[1] = tested on: Mouse small intestinal organoids; assay: Organoid culture and proliferation assay; type: cell-based; conditions: organoids treated with Porcupine inhibitor IWP2
Experimental: Mouse small intestinal organoids were maintained in mouse IntestiCult™ Organoid Growth Medium ([…] technologies) and passaged once a week until the date of assay for Wnt mimetic activity (H. Chen, Lu, Lee, & Li, 2020). To assay for organoid proliferation, organoids were dissociated with Gentle Cell Dissociation Reagent ([…] technologies) for 10 min with shaking, washed 2× in cold PBS (Gibco) and resuspended 1:1 in Matrigel (Corning) on ice. 25 ul of cell resuspension in Matrigel was seeded to the center of each well on a prewarmed 48-well tissue culture plate and let solidify for 5 min at 37 degrees. 300 ul of Basal Media (Table 10), Basal Media+IWP2+anti-βGal or Basal Media+IWP2+Wnt mimetic was applied to the wells. Each condition included 5-6 repeats. Media and treatments were changed once on Day 4 after plating. Images of the 3D cultured organoids were acquired on Day 7.
Mouse small intestinal organoids were treated with the Porcupine inhibitor IWP2 to inhibit endogenous Wnt ligand secretion in the cultured organoid. When these organoids were subject to no protein treatment or were treated with a control anti-β-gal IgG, the organoids were not maintained and quickly degenerated.

[2] = tested on: colon tissue markers (ZO-1, Ki67, Axin2, Cdkn3, S100A9, CD45); assay: RNA in situ hybridization and immunohistochemistry/immunofluorescence of colon tissue, DSS model; type: in vivo, mouse; conditions: day 10 of the DSS model
Source text: Expression of mRNA was detected by RNAscope in situ hybridization (ACD Bio). RNAscope probes used are listed below. For colorimetric visualization, standard RNAscope® 2.5 HD Assay-Red protocol (www.acdbio.com) was followed, and images were acquired on a Leica DMi8 microscope equipped with a DFC7000T color camera. For fluorescent RNAscope in situ hybridization, standard RNAscope Multiplex Fluorescent Reagent Kit v2 Assay protocol was followed (ACD Bio Document #323100-USM) and coupled with the TSA Plus Cyanine 3 and 5 Systems. Fluorescent images were acquired with a Leica Thunder imaging system.
In brief, five-micron thick formalin fixed paraffin embedded tissue sections on slides were deparaffinized followed by citrate buffer (pH 6) antigen retrieval in a steamer. Slides were then washed thoroughly in tap water followed by 1× wash in PBST. Subsequently, tissue sections were blocked with serum free protein block (Agilent, X090930-2) for one hour at room temperature followed by incubation in primary antibodies. After primary antibody incubation, tissue sections were washed in 0.1% TX-100 in PBS (PBST) at least three times followed by incubation in secondary antibody. Afterwards, tissue sections were washed with PBST, and coverslips were mounted with Vectashield Vibrance antifade mounting medium with DAPI (Vector Laboratories, H-1800).

[3] = tested on: DSS induced acute colitis in C57BL6/J mice; assay: DSS induced acute colitis model; type: in vivo, mouse; conditions: two doses day 4 and day 7, evaluated day 10
Experimental: 7- to 8-week-old female C57BL6/J mice were fed with 4% (wt/vol) Dextran Sulfate Sodium (DSS, MP Biomedicals, molecular weight 36-50 kDa, Ref #160110) in drinking water from day 1 to day 7 to induce colitis and were switched to 1% DSS from day 8. […] Animals were terminated on day 10, allowing a 6-day course of protein treatment, and the colon was harvested for histology and RT-qPCR. […] The disease activity index (DAI) was calculated based on the average score of weight loss, stool consistency and the degree of intestinal bleeding (Wirtz Stefan et al., 2017). Scoring system by grading was on a scale of 0 to 4 using the following parameters: loss of weight (0, 0-1%; 1, 1-6%; 2, 6-12%; 3, 12-18%; 4, >18%), stool consistency (0, normal; 1, soft but still formed; 2, soft; 3, very soft, wet; 4, watery diarrhea) and intestine bleeding (0-1, negative hemoccult; 2, positive hemoccult; 3, blood traces in stool visible; 4, gross rectal bleeding).
Small intestine and colon were extracted and, after removing fecal content, weighted and length measured. The desired small intestine segments (duodenum, jejunum, ileum) and colon segments (ascending, transverse and descending colon) were cut out and fixed directly in 10% neutral buffered formalin (NBF) overnight. Tissues were then transferred to 70% ethanol before paraffin embedding. Paraffin tissue blocks were then sectioned to […] thickness and stained with hematoxylin and eosin (H&E) for histology analysis. Pathology reading was performed by an independent pathologist.
[…] Groups of mice were either untreated, treated with an isotype control antibody (anti-GFP), or treated with the indicated engineered Wnt agonist once on day 4 or twice on day 4 and 7. […]
The 123 mice total were grouped: (Day3=13, day4=13, day5=26, day6=24, day7=26, day10=21), with 91 used for histology endpoints, and 21 for scRNA-seq (group eliminated because of machinery). Daily food intake, BW, fecal score, and occult blood were measured. […]

B1: R2M3-26: Fzd1,2,5,7,8 pan specific Wnt mimetic targeting FZD1,2,5,7,8 and LRP6 (protein)
light: DVQLVESGGGLVQAGGSLRLACAGSGRIFAIYDIAWYRHPPGNQRELVAMIRPVVTEIDYADSVKGRFTISRNNAMKTVYLQMNNLKPEDTAVYYCNAKRPWGSRDEYWGQGTQVTVSSGSGSGQAVVLQEPSLSVSPGGTVTLTCGLSSGSVSTNYYPSWYQQTPGQAPRTLIYYTNTRSSDVPERFSGSIVGNKAALTITGAQPDDESVYFCLLYLGRGIWVFGGGTKLTVLGQPKAAPSVTLFPPSSEELQANKATLVCLISDFYPGAVTVAWKADSSPVKAGVETTTPSKQSNNKYAASSYLSLTPEQWKSHRSYSCQVTHEGSTVEKTVAPTECS
heavy: EVQLVQSGAEVKKPGASVKVSCKASGYTFTSYGISWVRQAPGQGLEWMGWISAYNGNTNYAQKLQGRVTMTTDTSTSTAYMELRSLRSDDTAVYYCASSKEKATYYYGMDVWGQGTTVTVSSASTKGPSVFPLAPSSKSTSGGTAALGCLVKDYFPEPVTVSWNSGALTSGVHTFPAVLQSSGLYSLSSVVTVPSSSLGTQTYICNVNHKPSNTKVDKKVEPKSCDKTHTCPPCPAPEAAGGPSVFLFPPKPKDTLMISRTPEVTCVVVDVSHEDPEVKFNWYVDGVEVHNAKTKPREEQYNSTYRVVSVLTVLHQDWLNGKEYKCKVSNKALGAPIEKTISKAKGQPREPQVYTLPPSREEMTKNQVSLTCLVKGFYPSDIAVEWESNGQPENNYKTTPPVLDSDGSFFLYSKLTVDKSRWQQGNVFSCSVMHEALHNHYTQKSLSLSPGK
organoid proliferation and growth [1]: able to stimulate cell proliferation | Ki67 expression in duodenum and colon [2]: did not lead to an expansion of Ki67 | histology (colitis) score ([3]; reduced from 4.75, see WO 2020/185960A1): 2.0 | crypt architecture and tissue inflammation ([3]; versus PBS or anti-GFP): restored crypt architecture with less tissue inflammation

Reference: US20240150473A1, “MODULATION OF WNT SIGNALING IN GASTROINTESTINAL DISORDERS” (Surrozen Operating, Inc., priority 2021, published 2024)
